This note sets out measurements from the supplement of paper PMC5998384.

Data set [1] has as its system HeLa Kyoto. In words: solubility in G1/S (NP-40 vs SDS abundance) (log2 ratio); higher = more soluble. To be noted: cell cycle stage: G1/S.
In data set [2] the test system is HeLa Kyoto. Briefly: solubility change mitosis vs G1/S (difference of NP-40 vs SDS log2 ratios) (log2 ratio difference); higher = more soluble in mitosis.
Data set [3] has as its system HeLa Kyoto. Briefly: thermal stability score vs G1/S (z-score of summed log2 fold changes over temperatures); higher = more thermally stable than in G1/S.
The mark [4] stands for this setting: cell cycle stage: early G1 (4.5 h after nocodazole release).
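For solubility change mitosis vs G1/S (difference of NP-40 vs SDS log2 ratios) in this document: synchronized HeLa Kyoto cells (double thymidine block for G1/S, nocodazole release for mitosis), protein amounts in NP-40 versus SDS lysates quantified by mass spectrometry, three biological replicates.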
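For solubility in G1/S (NP-40 vs SDS abundance) in this document: HeLa Kyoto cells arrested at G1/S by double thymidine block, proteins quantified by TMT10plex mass spectrometry in mild NP-40 versus SDS extracts, three biological replicates.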
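For thermal stability score vs G1/S (z-score of summed log2 fold changes over temperatures) in this document: synchronized HeLa Kyoto cells, proteins quantified by TMT10plex mass spectrometry, three biological replicates, mitosis taken 0.5 h after nocodazole release, G1/S directly after double thymidine block.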

For “MLLPWATSAPGLAWGPLVLGLFGLLAASQPQAVPPYASENQTCRDQEKEYYEPQHRICCSRCPPGTYVSAKCSRIRDTVCATCAENSYNEHWNYLTICQLCRPCDPVMGLEEIAPCTSKRKTQCRCQPGMFCAAWALECTHCELLSDCPPGTEAELKDEVGKGNNHCVPCKAGHFQNTSSPSARCQPHTRCENQGLVEAAPGTAQSDTTCKNPLEPLPPEMSGTMLMLAVLLPLAFFLLLATVFSCIWKSHPSLCRKLGSLLKRRPQGEGPNPVAGSWEPPKAHPYFPDLVQPLLPISGDVSPVSTGLPAAPVLEAGVPQQQSPLDLTREPQLEPGEQSQVAHGTNGIHVTGGSMTITGNIYIYNGPVLGGPPGPGDLPATPEPPYPIPEEGDPGPPGLSTPHQEDGKAWHLAETEHCGATPSNRGPRNQFITHD [LTBR]”, the “solubility in G1/S (log2)” value in the data set on HeLa Kyoto [1] is -0.758. In addition, the “solubility change mitosis (log2)” value in the data set on HeLa Kyoto [2] was determined as 0.703. Further, the figures for the thermal stability score in the data set with HeLa Kyoto [3] (setting [4]) and in the data set with HeLa Kyoto [3] (cell cycle stage: mitosis) were -2.45 and -1.87, respectively.
On the same counts, the results for “MMPSRTNLATGIPSSKVKYSRLSSTDDGYIDLQFKKTPPKIPYKAIALATVLFLIGAFLIIIGSLLLSGYISKGGADRAVPVLIIGILVFLPGFYHLRIAYYASKGYRGYSYDDIPDFDD [TMEM230]” are 0.0716, -0.0463, -1.72 and -2.3.
On the same counts, the results for “MNKGWLELESDPGLFTLLVEDFGVKGVQVEEIYDLQSKCQGPVYGFIFLFKWIEERRSRRKVSTLVDDTSVIDDDIVNNMFFAHQLIPNSCATHALLSVLLNCSSVDLGPTLSRMKDFTKGFSPESKGYAIGNAPELAKAHNSHARPEPRHLPEKQNGLSAVRTMEAFHFVSYVPITGRLFELDGLKVYPIDHGPWGEDEEWTDKARRVIMERIGLATAGEPYHDIRFNLMAVVPDRRIKYEARLHVLKVNRQTVLEALQQLIRVTQPELIQTHKSQESQLPEESKSASNKSPLVLEANRAPAASEGNHTDGAEEAAGSCAQAPSHSPPNKPKLVVKPPGSSLNGVHPNPTPIVQRLPAFLDNHNYAKSPMQEEEDLAAGVGRSRVPVRPPQQYSDDEDDYEDDEEDDVQNTNSALRYKGKGTGKPGALSGSADGQLSVLQPNTINVLAEKLKESQKDLSIPLSIKTSSGAGSPAVAVPTHSQPSPTPSNESTDTASEIGSAFNSPLRSPIRSANPTRPSSPVTSHISKVLFGEDDSLLRVDCIRYNRAVRDLGPVISTGLLHLAEDGVLSPLALTEGGKGSSPSIRPIQGSQGSSSPVEKEVVEATDSREKTGMVRPGEPLSGEKYSPKELLALLKCVEAEIANYEACLKEEVEKRKKFKIDDQRRTHNYDEFICTFISMLAQEGMLANLVEQNISVRRRQGVSIGRLHKQRKPDRRKRSRPYKAKRQ [BAP1]” are 0.152, -0.138, 0.51 and 0.853.
For “MNNKFDALKDDDSGDHDQNEENSTQKDGEKEKTERDKNQSSSKRKAVVPGPAEHPLQYNYTFWYSRRTPGRPTSSQSYEQNIKQIGTFASVEQFWRFYSHMVRPGDLTGHSDFHLFKEGIKPMWEDDANKNGGKWIIRLRKGLASRCWENLILAMLGEQFMVGEEICGAVVSVRFQEDIISIWNKTASDQATTARIRDTLRRVLNLPPNTIMEYKTHTDSIKMPGRLGPQRLLFQNLWKPRLNVP [EIF4E2]” the same measures were 0.114, 0.000807, -1.02 and -0.941.
“MPSEGRCWETLKALRSSDKGRLCYYRDWLLRREDVLEECMSLPKLSSYSGWVVEHVLPHMQENQPLSETSPSSTSASALDQPSFVPKSPDASSAFSPASPATPNGTKGKDESQHTESMVLQSSRGIKVEGCVRMYELVHRMKGTEGLRLWQEEQERKVQALSEMASEQLKRFDEWKELKQHKEFQDLREVMEKSSREALGHQEKLKAEHRHRAKILNLKLREAEQQRVKQAEQERLRKEEGQIRLRALYALQEEMLQLSQQLDASEQHKALLKVDLAAFQTRGNQLCSLISGIIRASSESSYPTAESQAEAERALREMRDLLMNLGQEITRACEDKRRQDEEEAQVKLQEAQMQQGPEAHKEPPAPSQGPGGKQNEDLQVKVQDITMQWYQQLQDASMQCVLTFEGLTNSKDSQAKKIKMDLQKAATIPVSQISTIAGSKLKEIFDKIHSLLSGKPVQSGGRSVSVTLNPQGLDFVQYKLAEKFVKQGEEEVASHHEAAFPIAVVASGIWELHPRVGDLILAHLHKKCPYSVPFYPTFKEGMALEDYQRMLGYQVKDSKVEQQDNFLKRMSGMIRLYAAIIQLRWPYGNRQEIHPHGLNHGWRWLAQILNMEPLSDVTATLLFDFLEVCGNALMKQYQVQFWKMLILIKEDYFPRIEAITSSGQMGSFIRLKQFLEKCLQHKDIPVPKGFLTSSFWRS [GLE1]”: in the data set on HeLa Kyoto [1], the “solubility in G1/S (log2)” value was -0.966. Moreover, in the data set on HeLa Kyoto [2], the “solubility change mitosis (log2)” value turned out to be 0.773. Further, the thermal stability score was found to be 0.568 with HeLa Kyoto [3] (setting [4]) and 0.433 with HeLa Kyoto [3] (cell cycle stage: mitosis).
